Substitutions are numbered along the chain they refer to. Names and notes keep the numbering of the source.
B1: ALKTG (human ALK residues 648–985) (domain or fragment, UniProt Q9UM73 648-985, looked up)
chain: TAPKSRNLFERNPNKELKPGENSPRQTPIFDPTVHWLFTTCGASGPHGPTQAQCNNAYQNSNLSVEVGSEGPLKGIQIWKVPATDTYSISGYGAAGGKGGKNTMMRSHGVSVLGIFNLEKDDMLYILVGQQGEDACPSTNQLIQKVCIGENNVIEEEIRVNRSVHEWAGGGGGGGGATYVFKMKDGVPVPLIIAAGGGGRAYGAKTDTFHPERLENNSSVLGLNGNSGAAGGGGGWNDNTSLLWAGKSLQEGATGGHSCPQAMKKWGWETRGGFGGGGGGCSSGGGGGGYIGGNAASNNDPEMDGEDGVSFISPLGILYTPALKVMEGHGEVNIKHYL
B2: ALKAL2 (residues 78–152, conserved C-terminal domain) (ligand, human, UniProt Q6UX46 78-152, looked up)
chain: PSPEQRVEIVPRDLRMKDKFLKHLTGPLYFSPKCSKHFHRLYHNTRDCTIPAYYKRCARLLTRLAVSPVCMEDKQ
B3: purified ALKAL2^F97E (used in Ba/F3 and SEC-MALLS assays) (ligand, human, UniProt Q6UX46 78-152, looked up)
chain: B2 chain with F20E
B4: ALKAL1 (residues 57–129, conserved C-terminal domain) (ligand, human, UniProt Q6UXT8 57-129, looked up)
chain: PSGSRSAEIFPRDSNLKDKFIKHFTGPVTFSPECSKHFHRLYYNTRECSTPAYYKRCARLLTRLAVSPLCSQT
B5: purified ALKAL1^F76E (used in Ba/F3 and SEC-MALLS assays) (ligand, human, UniProt Q6UXT8 57-129, looked up)
chain: B4 chain with F20E
B6: ALK_(TG–EGFL) (human ALK residues 648–1038) (domain or fragment, UniProt Q9UM73 648-1038, looked up)
chain: TAPKSRNLFERNPNKELKPGENSPRQTPIFDPTVHWLFTTCGASGPHGPTQAQCNNAYQNSNLSVEVGSEGPLKGIQIWKVPATDTYSISGYGAAGGKGGKNTMMRSHGVSVLGIFNLEKDDMLYILVGQQGEDACPSTNQLIQKVCIGENNVIEEEIRVNRSVHEWAGGGGGGGGATYVFKMKDGVPVPLIIAAGGGGRAYGAKTDTFHPERLENNSSVLGLNGNSGAAGGGGGWNDNTSLLWAGKSLQEGATGGHSCPQAMKKWGWETRGGFGGGGGGCSSGGGGGGYIGGNAASNNDPEMDGEDGVSFISPLGILYTPALKVMEGHGEVNIKHYLNCSHCEVDECHMDPESHKVICFCDHGTVLAEDGVSCIVSPTPEPHLPLSLILS

Assays:
[1] = target: B2; assay: ITC
[2] = target: B4; assay: ITC
[3] = target: T1, LTK_(TG–EGFL) (human LTK residues 63–420) (human, UniProt P29376 63-420); assay: SEC-MALS
T1 sequence (looked up): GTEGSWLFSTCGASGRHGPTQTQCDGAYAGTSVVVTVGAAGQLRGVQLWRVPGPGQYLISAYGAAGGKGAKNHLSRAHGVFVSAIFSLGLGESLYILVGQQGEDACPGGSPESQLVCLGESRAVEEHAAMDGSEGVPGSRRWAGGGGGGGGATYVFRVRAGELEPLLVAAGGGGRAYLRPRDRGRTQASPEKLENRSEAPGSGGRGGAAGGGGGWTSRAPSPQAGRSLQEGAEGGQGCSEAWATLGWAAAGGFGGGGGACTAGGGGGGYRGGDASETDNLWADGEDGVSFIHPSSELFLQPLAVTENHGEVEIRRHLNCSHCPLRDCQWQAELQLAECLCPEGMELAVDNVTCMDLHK

[4] = target: B6; assay: SEC-MALS
[5] = target: T1, LTK_(TG–EGFL) (human LTK residues …); assay: ITC
[6] = target: full-length ALK ectodomain (ALKFL, residues 19–1038) (human, UniProt Q9UM73 19-1038); assay: ITC
[7] = target: B6; assay: ITC
[8] = target: B4; assay: SEC-MALS

Binder	stoichiometry N [3]	stoichiometry N [4] [receptor per cytokine]	Kd [5] [nM]	Kd [7] [nM]	other results
B1	–	–	–	–	fold reduction of affinity on removal of EGFL (against ALK_(TG–EGFL)) [1]: 30 fold; fold reduction of affinity on removal of EGFL (against ALK_(TG–EGFL)) [2]: 4 fold
B2	2 receptors per cytokine	1	55	40	stoichiometry N [6]: 1 receptor per cytokine
B3	–	1	–	–	–
B4	2 receptors per cytokine	–	10	600	–
B5	1 receptor per cytokine	–	–	–	–
B6	–	–	–	–	stoichiometry N [8]: 1 receptor per cytokine

Source: publication PMC9343967 (Nature, 2021)
